Source: US20220160842A1, “METHOD OF TREATING INFECTIVE ENDOCARDITIS” (priority 2019, published 2022)
Several values for one entry are separate records, joined by “and”; a condition that tells them apart may be missing. Equal values may be shown once.

How the values were obtained:
S. epidermidis = assay: MIC by broth microdilution; assay type: cell-based, Staphylococcus epidermidis; settings: N=52
Experimental: (§1) Minimal inhibitory concentrations (MICs) of exebacase against staphylococci were determined by broth microdilution (BMD) using a nonstandard antimicrobial susceptibility testing (AST) medium comprised of cation-adjusted Mueller Hinton broth (caMHB) supplemented with horse serum (Sigma Aldrich) and dithiothreitol (DTT; Sigma Aldrich) to final concentrations of 25% and 0.5 mM, respectively. This medium, referred to as caMHB-HSD, is approved for use in exebacase AST by the Clinical and Laboratory Standards Institute (CLSI) (CLSI. 2017, Jan. 16-17. AST Subcommittee Working Group Meetings and Plenary. AST Meeting Files & Resources, clsi.org/education/microbiology/ast/ast-meeting-files-resources/. Additional supplementation with 2.5% lysed red blood cells (Remel™, ThermoFisher) was included for analyses of streptococcal isolates, as recommended by CLSI. See CLSI, 2015. Methods for Dilution Antimicrobial Susceptibility Tests for Bacteria That Grow Aerobically, 10th Edition. Clinical and Laboratory Standards Institute, Wayne, Pa.
(§2) Daptomycin (Sigma Aldrich) and vancomycin hydrochloride (Sigma Aldrich) were tested following the reference BMD method for each. See CLSI. 2015. Methods for Dilution Antimicrobial Susceptibility Tests for Bacteria That Grow Aerobically, 10th Edition. Clinical and Laboratory Standards Institute, Wayne, Pa.

S. lugdunensis = assay: MIC by broth microdilution; assay type: cell-based, Staphylococcus lugdunensis; settings: S. lugdunensis, N=49
Experimental: as §1, §2

Staphylococcus hominis = assay: MIC by broth microdilution; assay type: cell-based; settings: n=2 strains, listed as exebacase
Experimental: as §1

S. pseudintermedius = assay: MIC by broth microdilution; assay type: cell-based, Staphylococcus pseudintermedius; settings: each of n=6 isolates
Experimental: as §1

S. sciuri = assay: MIC by broth microdilution; assay type: cell-based, Staphylococcus sciuri; settings: n=3 isolates
Experimental: as §1

S. simulans = assay: MIC by broth microdilution; assay type: cell-based, Staphylococcus simulans; settings: n=1 isolate
Experimental: as §1

S. hyicus = assay: MIC by broth microdilution; assay type: cell-based, Staphylococcus hyicus; settings: n=1 isolate
Experimental: as §1

S. mitis = assay: MIC by broth microdilution; assay type: cell-based, Streptococcus mitis; settings: S. mitis (viridans), N=18
Experimental: as §1, §2

S. salivarius = assay: MIC by broth microdilution; assay type: cell-based, Streptococcus salivarius; settings: S. salivarius (viridans), N=12
Experimental: as §1, §2

S. intermedius = assay: MIC by broth microdilution; assay type: cell-based, Streptococcus intermedius; settings: S. intermedius (viridans), N=10
Experimental: as §1, §2

S. pyogenes = assay: MIC by broth microdilution; assay type: cell-based, Streptococcus pyogenes; settings: S. pyogenes (group A), N=100
Experimental: as §1, §2

S. pneumoniae = assay: MIC by broth microdilution; assay type: cell-based, Streptococcus pneumoniae; settings: S. pneumoniae, N=59
Experimental: as §1, §2

MRSA strain MW2 = assay: Infective endocarditis rabbit model, CF-301 in series with daptomycin (Example 2); assay type: in vivo, rabbits
Experimental: The rational for selection of the daptomycin dose is as follows. Daptomycin pilot dose-response experiments were performed over a range from 1 mg/kg to 10 mg/kg, administered intravenously, once daily for 4 days in the infective endocarditis rabbit model described below, which was caused by the MRSA strain, MW2. FIG. 2 depicts data for individual animals, plotted as treatment regimen versus log10 CFU/g tissue (mean±SEM are shown). From these studies, a daptomycin dose-response was defined. […] In the rabbit infective endocarditis model, a daptomycin-alone dose of 4 mg/kg administered intravenously provided about 0.25 to 1.45 log10 reduction in bacterial burden compared to vehicle-treated controls.
A well-described indwelling transcarotid artery-to-left ventricle catheter-induced model of aortic valve infective endocarditis was used in rabbits. See Xiong et al., 2011, AAC, 55:P5325-5330. At 48 hours after catheter placement, infective endocarditis was induced by intravenous inoculums of about 2×10^5 CFU (the induction of ID95 of MRSA strain MW2 in this model). […] Daptomycin administration was continued once a day for 4 days. At 24 hours after the last dose of daptomycin, animals were humanely euthanized and cardiac vegetations, kidneys, and spleens were sterilely removed and quantitatively cultured. Bacterial density for each organ for the different treatment groups were calculated as mean log10 CFU/g of tissue (±95% confidence interval).

[1] = test system: S. aureus bacteremia/endocarditis; assay: Phase II clinical study, CF-301 plus standard of care antibiotics; assay type: in vivo, human
Experimental: These 116 patients constituted the microbiological intent to treat (mITT) population of a Phase II clinical study and was the primary efficacy analysis population. The primary efficacy endpoint was the clinical responder rate (CRR) at Day 14. Diagnosis and clinical outcomes were determined by a blinded Adjudication Committee.

[2] = healthy subjects, estimated previously; cited from earlier work
[3] = CF-301 0.09 mg/kg 1 hour prior to the initial dose of DAP 4 mg/kg IV QD x 4 days
[4] = CF-301 0.09 mg/kg 2 hours after the initial dose of DAP 4 mg/kg IV QD x 4 days
[5] = CF-301 0.09 mg/kg 2 hours prior to the initial dose of DAP 4 mg/kg IV QD x 4 days
[6] = CF-301 0.09 mg/kg 4 hours after the initial dose of DAP 4 mg/kg IV QD x 4 days
[7] = CF-301 0.09 mg/kg 4 hours prior to the initial dose of DAP 4 mg/kg IV QD x 4 days
[8] = CF-301 0.09 mg/kg immediately after the initial dose of DAP 4 mg/kg IV QD x 4 days

B1: CF-301: anti-staphylococcal lysin encoded within a prophage of the Streptococcus suis genome, SEQ ID NO: 2 with or without initial methionine (protein, listed as Streptococcus suis)
chain: MTTVNEALNNVRAQVGSGVSVGNGECYALASWYERMISPDATVGLGAGVGWVSGAIGDTISAKNIGSSYNWQANGWTVSTSGPFKAGQIVTLGATPGNPYGHVVIVEAVDGDRLTILEQNYGGKRYPVRNYYSAASYRQQVVHYITPPGTVAQSAPNLAGSRSYRETGTMTVTVDALNVRRAPNTSGEIVAVYKRGESFDYDTVIIDVNGYVWVSYIGGSGKRNYVATGATKDGKRFGNAWGTFK
- MIC50 (S. epidermidis): 0.5 µg/mL
- MIC90 (S. epidermidis): 0.5 µg/mL
- MIC Range (S. epidermidis): 0.125 to 2 µg/mL
- MIC50 (S. lugdunensis): 1 µg/mL
- MIC90 (S. lugdunensis): 1 µg/mL
- MIC Range (S. lugdunensis): 0.25 to 2 µg/mL
- MIC (Staphylococcus hominis): 0.125 µg/mL and 0.25 µg/mL
- MIC (S. pseudintermedius): 0.25 µg/mL
- MIC (S. sciuri): 2 µg/mL
- MIC (S. simulans): 0.125 µg/mL
- MIC (S. hyicus): 0.25 µg/mL
- MIC50 (S. mitis): 2 µg/mL
- MIC90 (S. mitis): 8 µg/mL
- MIC Range (S. mitis): 0.5 to 64 µg/mL
- MIC50 (S. salivarius): 2 µg/mL
- MIC90 (S. salivarius): 8 µg/mL
- MIC Range (S. salivarius): 0.5 to 8 µg/mL
- MIC50 (S. intermedius): 0.25 µg/mL
- MIC90 (S. intermedius): 0.25 µg/mL
- MIC Range (S. intermedius): 0.06 to 0.5 µg/mL
- MIC50 (S. pyogenes): 1 µg/mL
- MIC90 (S. pyogenes): 2 µg/mL
- MIC Range (S. pyogenes): 0.5 to 4 µg/mL
- MIC50 (S. pneumoniae): 4 µg/mL
- MIC90 (S. pneumoniae): 32 µg/mL
- MIC Range (S. pneumoniae): 1 to 64 µg/mL
- MRSA density, Mean Log10 CFU/g tissue ± STD, Kidneys (MRSA strain MW2; [3]): 3.53 ± 0.59 Log10 CFU/g tissue
- MRSA density, Mean Log10 CFU/g tissue ± STD, Spleen (MRSA strain MW2; [3]): 3.55 ± 0.74 Log10 CFU/g tissue
- MRSA density, Mean Log10 CFU/g tissue ± STD, Vegetation (MRSA strain MW2; [3]): 4.16 ± 0.82 Log10 CFU/g tissue
- MRSA density, Mean Log10 CFU/g tissue ± STD, Kidneys (MRSA strain MW2; [4]): 2.29 ± 0.87 Log10 CFU/g tissue
- MRSA density, Mean Log10 CFU/g tissue ± STD, Spleen (MRSA strain MW2; [4]): 2.23 ± 1.09 Log10 CFU/g tissue
- MRSA density, Mean Log10 CFU/g tissue ± STD, Vegetation (MRSA strain MW2; [4]): 2.25 ± 1.39 Log10 CFU/g tissue
- MRSA density, Mean Log10 CFU/g tissue ± STD, Kidneys (MRSA strain MW2; [5]): 3.48 ± 0.47 Log10 CFU/g tissue
- MRSA density, Mean Log10 CFU/g tissue ± STD, Spleen (MRSA strain MW2; [5]): 3.31 ± 0.57 Log10 CFU/g tissue
- MRSA density, Mean Log10 CFU/g tissue ± STD, Vegetation (MRSA strain MW2; [5]): 3.54 ± 0.68 Log10 CFU/g tissue
- MRSA density, Mean Log10 CFU/g tissue ± STD, Kidneys (MRSA strain MW2; [6]): 3.78 ± 0.51 Log10 CFU/g tissue
- MRSA density, Mean Log10 CFU/g tissue ± STD, Spleen (MRSA strain MW2; [6]): 3.49 ± 0.33 Log10 CFU/g tissue
- MRSA density, Mean Log10 CFU/g tissue ± STD, Vegetation (MRSA strain MW2; [6]): 4.31 ± 0.89 Log10 CFU/g tissue
- MRSA density, Mean Log10 CFU/g tissue ± STD, Kidneys (MRSA strain MW2; [7]): 2.97 ± 0.32 Log10 CFU/g tissue
- MRSA density, Mean Log10 CFU/g tissue ± STD, Spleen (MRSA strain MW2; [7]): 3.18 ± 0.35 Log10 CFU/g tissue
- MRSA density, Mean Log10 CFU/g tissue ± STD, Vegetation (MRSA strain MW2; [7]): 3.45 ± 0.63 Log10 CFU/g tissue
- MRSA density, Mean Log10 CFU/g tissue ± STD, Kidneys (MRSA strain MW2; [8]): 2.77 ± 0.65 Log10 CFU/g tissue
- MRSA density, Mean Log10 CFU/g tissue ± STD, Spleen (MRSA strain MW2; [8]): 2.60 ± 0.17 Log10 CFU/g tissue
- MRSA density, Mean Log10 CFU/g tissue ± STD, Vegetation (MRSA strain MW2; [8]): 3.23 ± 0.36 Log10 CFU/g tissue
- MRSA densities in all three target tissues as compared to the controls and daptomycin alone (MRSA strain MW2; single dose of CF-301 added to daptomycin regimen, all time-points tested): significantly reduced
- hypersensitivity ([1]; CF-301 treatment group): no reports of hypersensitivity
- incidence of treatment emergent adverse events (TEAEs) ([1]; CF-301 treatment group): 88.9%
- serious TEAEs ([1]; CF-301 treatment group): 47.2%
- CRR higher than in patients treated with standard of care antibiotics alone ([1]; MRSA-infected patients): about 40%
- CRR ([1]; MRSA-infected patients, CF-301 and standard of care antibiotics): 74.10%
- tolerability ([1]; addition of CF-301 to a standard of care antibiotic regimen): well-tolerated
- died ([1]; from study drug administration through 28 days after the end of SOC antibiotic treatment): 19.4%
- clinical responder rate (CRR) at Day 14 ([1]; mITT population, single two hour infusion of CF-301 plus SOC antibiotics): 70.4%
- CRR ([1]; patients with bacteremia alone): 81.8%
- CRR ([1]; subset with bacteremia/right-sided endocarditis): 80%
- effect of age on AUC0-24 or Cmax (covariate on peripheral clearance): less than 4%
- CL lower than in healthy subjects (patients vs healthy subjects): 40%
- Vd lower than in healthy subjects (patients vs healthy subjects): 17%
- fold higher AUC0-24 or Cmax than patients with normal renal function (patients with moderate and severe renal impairment, expected from PPK model): 1.3 to 2 fold
- Total volume distribution (patients, PPK model): 20.2 L
- central compartment (Vc) (patients, PPK model, RSE 8.2%): 4.5 L
- Clearance (patients, three-compartment PPK model, RSE 5.5%): 4.2 Liters (L)/hour (hr)
- CL [2]: 7.1 L/h
- volume distribution (Vd) [2]: 27.7 L
